In the supplement of paper PMC7877785:
± gives the uncertainty stated by the source.

Test: self-splicing fitness, log relative to wild type (ln ratio); higher = more splicing; Tetrahymena group I intron in knt gene, E. coli kanamycin selection, DiMSum; sequences stand for … in CUCUCU…GGAGGGAAAAGUUAUCAGGCAUGCACCUGGUAGCUAGUCUUUAAACCAAUAGAUUGCAUCGGUUUAAAAGGCAAGACCGUCAAAUUGCGGGAAAGGGGUCAACAGCCGUUCAGUACCAAGUCUCAGGGGAAACUUUGAGAUGGCCUUGCAAAGGGUAUGGUAAUAAGCUGACGGACAUGGUCCUAACCACGCAGCCAAGUCCUAAGUCAACAGAUCUUCUGUUGAUAUGGAUGCAGUUCACAGACUAAAUGUCGGUCGGGGAAGAUGUAUUCUUCUCAUAAGAUAUAGUCGGACCUCUCCUUAAUGGGAGCUAGCGGAUGAAGUGAUGCAACACUGGAGCCGCUGGGAACUAAUUUGUAUGCGAAAGUAUAUUGAUUAGUUUUGGAGUACUCGUGGUCG
How it was run: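 Fitness was computed with DiMSum as the error-weighted combination of replicate fold changes, kanamycin versus none, each normalised to wild type. The library randomised all eight intron nucleotides of the P1ex region, with the intron placed in the knt kanamycin-resistance gene on pET-22b(+) in E. coli BL21(DE3). Six replicate transformations were grown overnight at 37°C or 30°C on LB agar with or without 25 μg/mL kanamycin, plus 100 μg/mL carbenicillin, 50 μM IPTG and 0.2% rhamnose. Pooled colonies were amplicon-sequenced on an Illumina HiSeq 2500.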

Sequence	self-splicing fitness (ln) (30 °C)	self-splicing fitness (ln) (37 °C)
GGUAAGCAAUAUUACGCCAU	-2.39 ± 0.36	-1.86 ± 0.29
GGUAAGCAAUAUUACGCGGU	-3.85 ± 0.31	-0.403 ± 0.15
GGUAAGCAAUAUUACGGAAA	-3.13 ± 0.35	-0.547 ± 0.16
GGUAAGCAAUAUUACGGGGG	-3.98 ± 0.46	-3.13 ± 0.2
GGUAAGCAAUAUUACGGUAA	-1.6 ± 0.17	-0.53 ± 0.14
GGUAAGCAAUAUUACGGUCC	-1.57 ± 0.34	–
GGUAAGCAAUAUUACGUCUA	-0.569 ± 0.1	-0.562 ± 0.1
GGUAAGCAAUAUUACGUGCC	-3.17 ± 0.39	-3.07 ± 0.38
GGUAAGCAAUAUUACGUGCG	-1.12 ± 0.12	-0.227 ± 0.12
GGUAAGCAAUAUUACGUGCU	-2.24 ± 0.18	-1.36 ± 0.2
GGUAAGCAAUAUUACGUUAA	-2.57 ± 0.29	-1.37 ± 0.2
GGUAAGCAAUAUUACGUUGC	-3.3 ± 0.32	-2.95 ± 0.4
GGUAAGCAAUAUUACGUUUA	-2.68 ± 0.17	-0.278 ± 0.11
GGUCAGCAAUAUUACGAAAU	-1.15 ± 0.097	0.351 ± 0.12
GGUCAGCAAUAUUACGAACU	-0.446 ± 0.25	-1.74 ± 0.21
GGUCAGCAAUAUUACGACUU	-0.64 ± 0.081	-1.09 ± 0.087
GGUCAGCAAUAUUACGAGCA	-0.762 ± 0.32	–
GGUCAGCAAUAUUACGAGUA	-2.09 ± 0.18	-1.32 ± 0.14
GGUCAGCAAUAUUACGCCAG	-3.3 ± 0.47	-3.3 ± 0.4
GGUCAGCAAUAUUACGCGCU	–	-2.13 ± 0.15
GGUCAGCAAUAUUACGCUAA	-1.1 ± 0.095	0.512 ± 0.13
GGUCAGCAAUAUUACGGAAA	-1.22 ± 0.11	-0.845 ± 0.11
GGUCAGCAAUAUUACGGGCA	-0.684 ± 0.1	-0.119 ± 0.11
GGUCAGCAAUAUUACGGUCG	-0.085 ± 0.066	0.661 ± 0.09
GGUCAGCAAUAUUACGGUCU	-1.28 ± 0.12	-0.217 ± 0.13
GGUCAGCAAUAUUACGGUUG	-1.07 ± 0.1	-0.43 ± 0.12

Sequence	self-splicing fitness (ln) (30 °C)	self-splicing fitness (ln) (37 °C)
GGUCAGCAAUAUUACGUACG	0.123 ± 0.08	-0.609 ± 0.082
GGUCAGCAAUAUUACGUAUG	-1.66 ± 0.085	0.0829 ± 0.1
GGUCAGCAAUAUUACGUGAU	-3.88 ± 0.22	-2.14 ± 0.11
GGUCAGCAAUAUUACGUGUA	-0.892 ± 0.071	-0.855 ± 0.082
GGUCAGCAAUAUUACGUGUC	-0.998 ± 0.12	-0.0483 ± 0.13
GGUCAGCAAUAUUACGUUCA	-0.169 ± 0.13	-0.487 ± 0.13
GGUCAGCAAUAUUACGUUCG	-0.853 ± 0.093	0.373 ± 0.13
GGUGAGCAAUAUUACGAAAA	-2.57 ± 0.32	-2.66 ± 0.38
GGUGAGCAAUAUUACGACCA	-1.21 ± 0.25	-0.616 ± 0.31
GGUGAGCAAUAUUACGACCU	-2.12 ± 0.26	-2.52 ± 0.49
GGUGAGCAAUAUUACGACUG	-0.488 ± 0.11	0.309 ± 0.13
GGUGAGCAAUAUUACGAGAU	–	-2.44 ± 0.24
GGUGAGCAAUAUUACGAGGA	-1.95 ± 0.39	-2.02 ± 0.33
GGUGAGCAAUAUUACGAUUU	-1.35 ± 0.23	-0.612 ± 0.25
GGUGAGCAAUAUUACGCCAG	-2.86 ± 0.47	–
GGUGAGCAAUAUUACGCCGA	-2.06 ± 0.46	-1.46 ± 0.48
GGUGAGCAAUAUUACGCGUA	-1.95 ± 0.3	-0.54 ± 0.21
GGUGAGCAAUAUUACGGAAU	-2.53 ± 0.39	0.428 ± 0.28
GGUGAGCAAUAUUACGGCUU	-1.7 ± 0.16	-0.614 ± 0.17
GGUGAGCAAUAUUACGGGUC	-1.98 ± 0.11	-2.4 ± 0.15
GGUGAGCAAUAUUACGGUGU	-3.9 ± 0.36	-2.05 ± 0.31
GGUGAGCAAUAUUACGUCGG	-2.16 ± 0.28	-2.5 ± 0.3
GGUGAGCAAUAUUACGUGGG	-3.2 ± 0.23	-2.09 ± 0.23
GGUGAGCAAUAUUACGUUCC	-1.39 ± 0.18	-0.666 ± 0.24
GGUGAGCAAUAUUACGUUCU	0.501 ± 0.28	-1.16 ± 0.27
GGUGAGCAAUAUUACGUUGA	-2.7 ± 0.43	-1.05 ± 0.18

Sequence	self-splicing fitness (ln) (30 °C)	self-splicing fitness (ln) (37 °C)
GGUUAGCAAUAUUACGACGC	0.551 ± 0.17	0.289 ± 0.16
GGUUAGCAAUAUUACGACGU	0.152 ± 0.071	0.738 ± 0.089
GGUUAGCAAUAUUACGACUC	-1.58 ± 0.17	-0.677 ± 0.21
GGUUAGCAAUAUUACGAGGU	–	-2.43 ± 0.32
GGUUAGCAAUAUUACGCCCG	-3.15 ± 0.49	-1.55 ± 0.48
GGUUAGCAAUAUUACGCCGA	-1.52 ± 0.25	-0.734 ± 0.23
GGUUAGCAAUAUUACGCCUC	-0.314 ± 0.17	-1.4 ± 0.2
GGUUAGCAAUAUUACGCGUU	-1.01 ± 0.17	-0.358 ± 0.19
GGUUAGCAAUAUUACGCUUG	-2.32 ± 0.15	-1.82 ± 0.2
GGUUAGCAAUAUUACGGCCA	-0.0519 ± 0.23	0.0427 ± 0.2
GGUUAGCAAUAUUACGGCUC	-2.05 ± 0.33	-0.541 ± 0.46
GGUUAGCAAUAUUACGGCUG	-0.585 ± 0.16	0.214 ± 0.28
GGUUAGCAAUAUUACGGUAG	-2.79 ± 0.15	-2.28 ± 0.2
GGUUAGCAAUAUUACGUAUC	-0.749 ± 0.12	0.0936 ± 0.15
GGUUAGCAAUAUUACGUCUU	-0.107 ± 0.093	0.227 ± 0.11
GGUUAGCAAUAUUACGUUAC	-2.81 ± 0.19	-1.47 ± 0.23
GGUUAGCAAUAUUACGUUUG	-4.51 ± 0.34	-1.42 ± 0.17
GUAAAGCAAUAUUACGAAGU	-1.47 ± 0.077	-0.327 ± 0.098
GUAAAGCAAUAUUACGACAC	0.603 ± 0.098	0.696 ± 0.12
GUAAAGCAAUAUUACGAGGC	-2.91 ± 0.18	-2.44 ± 0.24
GUAAAGCAAUAUUACGAGUG	-1.69 ± 0.059	-0.403 ± 0.08
GUAAAGCAAUAUUACGCACU	0.0854 ± 0.099	-0.289 ± 0.12
GUAAAGCAAUAUUACGCGAU	-3.23 ± 0.21	-1.42 ± 0.19
GUAAAGCAAUAUUACGGACU	-0.753 ± 0.061	-0.471 ± 0.082
GUAAAGCAAUAUUACGGCAA	-0.0595 ± 0.1	-0.0616 ± 0.16
GUAAAGCAAUAUUACGGCAC	0.217 ± 0.12	0.134 ± 0.15
